Data reported in publication PMC2585861 (The Journal of General Physiology, 2008).

Biological target: the molecule itself
Experiment: SEC

B1: KvLm-PM, pore module of KvLm (S4-S5 linker-S5-P-S6-C-terminus) (domain or fragment, Listeria monocytogenes, UniProt Q8Y5K1 98-247, looked up)
chain: RYIVPIYSFFRSNGLNRFLMIFVLLVIIIPVPMVFIEPEINNYPDALWWAIVTATTVGYGDIVPVTPIGRILASIMMLFGIAFIGMITSTITNFFRAKKPTNSSTQRANKITQLISETPDLTKEEIAVVEQFLTLRKKELADENTKSDSE
Question: How did the “stoichiometry N” value turn out when B1 was run?
Answer: 4
